One assay addresses TXN (UniProt P10599). Briefly: co-IP, anti-FLAG, C-FLAG B3GNT2 cell lysate, mass spectrometry.
The target of a further assay is NCCRP1 (UniProt Q6ZVX7). The assay is described as above.
A further assay concerns the target DDX20 (UniProt Q9UHI6). The description is as above.
Another assay has as its target HSPB1 (UniProt P04792). The assay is described as above.
The next assay addresses MTCH2 (UniProt Q9Y6C9). The description is as above.
A further assay has as its target TNKS1BP1 (UniProt Q9C0C2). The assay is described as above.
A further assay addresses RPL35 (UniProt P42766). The description is as above.
In a further assay the target is RPL22 (UniProt P35268). The description is as above.
The target in the next assay is RPS19 (UniProt P39019). Described as above.
The target in a further assay is MTDH (UniProt Q86UE4). Described as above.
A further assay concerns the target RPS16 (UniProt P62249). The assay is described as above.
For another assay, the target named is PSMA7 (UniProt O14818). Described as above.
The next assay concerns the target RPL19 (UniProt P84098). Described as above.
Another assay has as its target RPL37A (UniProt P61513). Described as above.
In a further assay the target is DNAJA2 (UniProt O60884). The description is as above.
The next assay addresses RPS8 (UniProt P62241). Described as above.
In another assay the target is RPL27A (UniProt P46776). The assay is described as above.
The next assay has as its target SSRP1 (UniProt Q08945). The description is as above.
In the next assay the target is ITGB3 (UniProt P05106). The assay is described as above.
Another assay addresses PBXIP1 (UniProt Q96AQ6). Described as above.
For a further assay, the target named is RPL5 (UniProt P46777). The assay is described as above.
Another assay addresses HIST1H1E (UniProt P10412). The assay is described as above.
For the next assay, the target named is LIMA1 (UniProt Q9UHB6). The description is as above.
A further assay concerns the target SRSF3 (UniProt P84103). The assay is described as above.
In another assay the target is EIF4G1 (UniProt Q04637). The assay is described as above.
The target in a further assay is TAGLN (UniProt Q01995). The assay is described as above.
The target of another assay is LYZ (UniProt P61626). Description: co-IP with mouse IgG control, mass spectrometry; lysate of C-FLAG B3GNT2 cells.
The target of a further assay is RPLP2 (UniProt P05387). The assay is described as above.
For the next assay, the target named is HNRNPA1 (UniProt P09651). The description is as above.
In the next assay the target is TPI1 (UniProt P60174). Described as above.
The target in a further assay is ATXN2L (UniProt Q8WWM7). The assay is described as above.
In another assay the target is HBA1 (UniProt P69905). The assay is described as above.
The target in the next assay is SSR1 (UniProt P43307). The description is as above.
The target in the next assay is ATP5F1B (UniProt P06576). The description is as above.
Another assay concerns the target AHNAK (UniProt Q09666). The assay is described as above.
The target in the next assay is UBA52 (UniProt P62987). Described as above.
In another assay the target is RPL36A (UniProt P83881). The description is as above.
The target in the next assay is S100A9 (UniProt P06702). Described as above.
A further assay deals with RPL31 (UniProt P62899). The description is as above.
The target in a further assay is EEF1A1 (UniProt P68104). The assay is described as above.

Sequence of TAGLN (Q01995 2-201 limits assumed): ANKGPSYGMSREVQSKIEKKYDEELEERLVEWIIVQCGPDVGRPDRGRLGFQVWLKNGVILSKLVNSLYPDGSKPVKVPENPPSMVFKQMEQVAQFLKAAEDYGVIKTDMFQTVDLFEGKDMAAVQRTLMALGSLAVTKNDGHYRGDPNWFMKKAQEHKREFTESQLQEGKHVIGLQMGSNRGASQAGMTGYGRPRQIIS
Sequence of DDX20 (Q9UHI6 whole entry): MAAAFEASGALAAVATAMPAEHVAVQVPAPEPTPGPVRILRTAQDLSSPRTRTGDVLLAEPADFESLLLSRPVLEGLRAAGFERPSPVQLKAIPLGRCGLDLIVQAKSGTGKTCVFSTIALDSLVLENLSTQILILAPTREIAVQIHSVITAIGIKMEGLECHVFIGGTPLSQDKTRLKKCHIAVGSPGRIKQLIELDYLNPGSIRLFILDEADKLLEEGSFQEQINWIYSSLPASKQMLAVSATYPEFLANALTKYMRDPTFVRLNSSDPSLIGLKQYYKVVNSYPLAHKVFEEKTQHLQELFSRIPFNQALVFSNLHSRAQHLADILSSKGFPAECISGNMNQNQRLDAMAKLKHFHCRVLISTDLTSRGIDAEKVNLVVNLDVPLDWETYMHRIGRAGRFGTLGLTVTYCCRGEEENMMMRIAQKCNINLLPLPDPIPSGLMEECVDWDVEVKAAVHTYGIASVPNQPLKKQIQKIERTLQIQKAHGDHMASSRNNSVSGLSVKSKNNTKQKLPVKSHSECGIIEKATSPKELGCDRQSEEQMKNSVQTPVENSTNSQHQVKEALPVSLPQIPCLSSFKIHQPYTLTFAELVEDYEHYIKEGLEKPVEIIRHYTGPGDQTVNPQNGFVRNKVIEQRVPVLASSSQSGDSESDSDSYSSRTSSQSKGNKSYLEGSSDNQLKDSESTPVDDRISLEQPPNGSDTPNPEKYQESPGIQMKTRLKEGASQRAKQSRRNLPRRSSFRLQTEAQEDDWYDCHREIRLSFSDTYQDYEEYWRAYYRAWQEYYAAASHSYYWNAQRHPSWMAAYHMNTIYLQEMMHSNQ
Sequence of DNAJA2 (O60884 1-409 limits assumed): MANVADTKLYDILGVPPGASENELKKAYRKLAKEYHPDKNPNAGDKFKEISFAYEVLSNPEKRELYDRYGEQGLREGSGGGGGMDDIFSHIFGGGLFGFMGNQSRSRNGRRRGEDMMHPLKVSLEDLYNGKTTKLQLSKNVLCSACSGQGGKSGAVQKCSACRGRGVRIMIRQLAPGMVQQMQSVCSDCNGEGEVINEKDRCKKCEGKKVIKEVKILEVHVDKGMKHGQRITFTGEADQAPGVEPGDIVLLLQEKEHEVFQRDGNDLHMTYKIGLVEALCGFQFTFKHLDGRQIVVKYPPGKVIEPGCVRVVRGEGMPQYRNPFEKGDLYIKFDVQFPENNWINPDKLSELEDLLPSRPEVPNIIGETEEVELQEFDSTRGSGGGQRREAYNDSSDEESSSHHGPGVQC
Sequence of TXN (P10599 2-105 limits assumed): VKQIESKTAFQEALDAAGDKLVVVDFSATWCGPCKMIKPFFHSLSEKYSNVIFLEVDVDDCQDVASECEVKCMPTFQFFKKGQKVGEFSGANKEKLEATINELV
Sequence of SSR1 (P43307 19-286 limits assumed): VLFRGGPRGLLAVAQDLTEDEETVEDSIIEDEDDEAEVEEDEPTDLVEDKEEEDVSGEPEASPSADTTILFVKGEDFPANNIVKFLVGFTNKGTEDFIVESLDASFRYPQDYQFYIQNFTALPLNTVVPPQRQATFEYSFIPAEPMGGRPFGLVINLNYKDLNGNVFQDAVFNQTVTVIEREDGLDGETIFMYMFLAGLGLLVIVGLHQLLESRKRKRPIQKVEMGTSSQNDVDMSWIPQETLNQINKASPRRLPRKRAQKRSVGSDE
Sequence of SRSF3 (P84103 whole entry): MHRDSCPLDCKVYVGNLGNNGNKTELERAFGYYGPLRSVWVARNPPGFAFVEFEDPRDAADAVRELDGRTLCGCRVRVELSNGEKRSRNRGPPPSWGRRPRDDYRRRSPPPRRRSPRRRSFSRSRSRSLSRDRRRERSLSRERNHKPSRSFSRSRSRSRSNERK
Sequence of PBXIP1 (Q96AQ6 30-731 limits assumed): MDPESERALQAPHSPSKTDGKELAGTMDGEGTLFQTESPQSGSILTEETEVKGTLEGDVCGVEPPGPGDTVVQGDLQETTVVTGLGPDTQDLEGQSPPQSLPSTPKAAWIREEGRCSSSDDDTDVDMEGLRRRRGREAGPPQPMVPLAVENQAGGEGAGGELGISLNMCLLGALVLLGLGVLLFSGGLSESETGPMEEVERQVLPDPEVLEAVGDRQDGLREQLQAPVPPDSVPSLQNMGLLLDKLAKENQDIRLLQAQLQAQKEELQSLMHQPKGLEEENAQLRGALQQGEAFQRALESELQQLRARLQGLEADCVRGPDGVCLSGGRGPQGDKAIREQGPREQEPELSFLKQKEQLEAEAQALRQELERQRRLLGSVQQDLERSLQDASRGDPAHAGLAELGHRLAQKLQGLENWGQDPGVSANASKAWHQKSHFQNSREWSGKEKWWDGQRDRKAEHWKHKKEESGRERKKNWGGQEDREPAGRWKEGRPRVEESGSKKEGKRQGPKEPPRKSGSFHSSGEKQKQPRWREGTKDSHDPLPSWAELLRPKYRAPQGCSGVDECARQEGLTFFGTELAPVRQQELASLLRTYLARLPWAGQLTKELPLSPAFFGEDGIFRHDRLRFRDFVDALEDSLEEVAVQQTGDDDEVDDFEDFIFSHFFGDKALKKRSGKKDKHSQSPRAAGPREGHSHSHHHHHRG
Sequence of S100A9 (P06702 whole entry): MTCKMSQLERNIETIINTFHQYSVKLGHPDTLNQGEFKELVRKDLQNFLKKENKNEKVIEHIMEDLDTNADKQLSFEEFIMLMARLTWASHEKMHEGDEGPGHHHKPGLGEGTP
Sequence of RPLP2 (P05387 whole entry): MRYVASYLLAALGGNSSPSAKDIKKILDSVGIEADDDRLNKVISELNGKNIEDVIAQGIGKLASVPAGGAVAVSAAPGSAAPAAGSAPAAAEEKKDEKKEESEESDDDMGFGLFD
Sequence of ITGB3 (P05106 27-788 limits assumed): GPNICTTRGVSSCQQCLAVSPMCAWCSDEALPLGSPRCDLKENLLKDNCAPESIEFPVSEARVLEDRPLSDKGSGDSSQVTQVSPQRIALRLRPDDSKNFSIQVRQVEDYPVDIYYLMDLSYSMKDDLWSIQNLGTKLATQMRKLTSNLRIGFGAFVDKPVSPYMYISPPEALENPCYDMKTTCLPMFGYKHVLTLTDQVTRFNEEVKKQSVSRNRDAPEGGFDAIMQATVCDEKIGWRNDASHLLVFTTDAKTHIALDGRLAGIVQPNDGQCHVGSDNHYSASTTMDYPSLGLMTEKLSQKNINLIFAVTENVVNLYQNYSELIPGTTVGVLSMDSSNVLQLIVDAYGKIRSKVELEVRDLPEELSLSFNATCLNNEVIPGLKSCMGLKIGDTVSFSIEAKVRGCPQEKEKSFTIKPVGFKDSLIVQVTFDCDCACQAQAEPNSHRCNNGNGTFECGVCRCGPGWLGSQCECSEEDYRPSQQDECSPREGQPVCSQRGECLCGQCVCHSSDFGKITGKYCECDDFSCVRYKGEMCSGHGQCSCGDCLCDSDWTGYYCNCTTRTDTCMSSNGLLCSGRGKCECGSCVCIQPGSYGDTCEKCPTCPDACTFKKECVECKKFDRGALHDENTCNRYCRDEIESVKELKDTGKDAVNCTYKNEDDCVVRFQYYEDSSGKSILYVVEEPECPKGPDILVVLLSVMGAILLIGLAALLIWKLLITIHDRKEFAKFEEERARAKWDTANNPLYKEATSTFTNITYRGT
Sequence of HIST1H1E (P10412 2-219 limits assumed): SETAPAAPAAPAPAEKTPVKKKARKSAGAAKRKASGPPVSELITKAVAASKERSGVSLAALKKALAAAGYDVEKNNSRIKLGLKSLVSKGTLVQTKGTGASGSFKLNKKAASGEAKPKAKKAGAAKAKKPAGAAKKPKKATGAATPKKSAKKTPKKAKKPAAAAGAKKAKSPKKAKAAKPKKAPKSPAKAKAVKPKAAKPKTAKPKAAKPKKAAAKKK
Sequence of ATP5F1B (P06576 48-529 limits assumed): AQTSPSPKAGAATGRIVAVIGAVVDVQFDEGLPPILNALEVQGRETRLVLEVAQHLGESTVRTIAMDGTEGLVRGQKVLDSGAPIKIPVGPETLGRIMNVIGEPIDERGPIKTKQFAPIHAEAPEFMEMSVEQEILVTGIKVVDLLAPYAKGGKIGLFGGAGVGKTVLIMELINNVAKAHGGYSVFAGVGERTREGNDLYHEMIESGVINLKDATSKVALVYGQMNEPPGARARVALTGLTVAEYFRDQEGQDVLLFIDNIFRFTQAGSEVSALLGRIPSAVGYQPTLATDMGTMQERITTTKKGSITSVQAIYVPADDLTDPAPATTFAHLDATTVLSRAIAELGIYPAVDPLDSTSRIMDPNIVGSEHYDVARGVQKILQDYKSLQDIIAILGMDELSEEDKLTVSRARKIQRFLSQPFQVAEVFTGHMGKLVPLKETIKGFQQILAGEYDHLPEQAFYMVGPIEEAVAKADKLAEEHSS
Sequence of HNRNPA1 (P09651 2-372 limits assumed): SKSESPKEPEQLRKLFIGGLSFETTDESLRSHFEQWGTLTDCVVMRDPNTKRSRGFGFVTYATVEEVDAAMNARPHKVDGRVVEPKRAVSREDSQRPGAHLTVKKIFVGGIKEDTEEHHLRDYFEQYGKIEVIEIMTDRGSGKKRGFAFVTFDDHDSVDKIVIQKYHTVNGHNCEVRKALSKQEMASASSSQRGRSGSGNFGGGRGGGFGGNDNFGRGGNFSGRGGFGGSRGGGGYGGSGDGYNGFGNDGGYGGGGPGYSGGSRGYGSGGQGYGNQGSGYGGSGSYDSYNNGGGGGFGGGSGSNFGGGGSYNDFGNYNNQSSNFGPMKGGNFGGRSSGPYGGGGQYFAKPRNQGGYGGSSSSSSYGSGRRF
Sequence of LYZ (P61626 19-148 limits assumed): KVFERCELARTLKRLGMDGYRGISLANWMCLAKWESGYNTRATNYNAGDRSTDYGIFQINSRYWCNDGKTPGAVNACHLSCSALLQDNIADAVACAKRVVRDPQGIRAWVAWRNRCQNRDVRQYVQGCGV

With “C-terminal FLAG tagged B3GNT2 (from UniProt Q9NY97 1-397) (enzyme)”, the co-IP mass spectrometry count stood at 3 with TXN; 4 with NCCRP1; 6 with DDX20; 4 in the assay with HSPB1; 2 with MTCH2; 8 with TNKS1BP1. Also, the co-IP mass spectrometry count came out at 5 with RPL35; 5 in the assay with RPL22; 10 with RPS19; 6 with MTDH; 20 in the assay with RPS16; 2 in the assay with PSMA7. Further, the co-IP mass spectrometry count was 11 with RPL19; 7 with RPL37A; 3 with DNAJA2; 17 with RPS8; 10 in the assay with RPL27A; 6 in the assay with SSRP1. In addition, the co-IP mass spectrometry count with ITGB3 came out at 3; with PBXIP1 it was 4; in the assay with RPL5 it was 6; with HIST1H1E it was 6; in the assay with LIMA1 it was 2; with SRSF3 it was 7. Further, the co-IP mass spectrometry count came to 6 with EIF4G1 and 3 in the assay with TAGLN.

With “IgG control (Millipore Sigma 12-371) (antibody)”, the co-IP mass spectrometry count with LYZ was 0; in the assay with RPLP2, 0; with HNRNPA1, 4; in the assay with TPI1, 0; in the assay with ATXN2L, 2; with HBA1, 0. In addition, the co-IP mass spectrometry count with SSR1 was 0; with ATP5F1B it was 0; in the assay with AHNAK it was 2; with UBA52, 7; in the assay with RPL36A, 0; with S100A9, 5. For the same substance, the co-IP mass spectrometry count with RPL31 stood at 0; with EEF1A1, 5.

The values above are taken from patent US20240261333A1, “NOVEL TARGETS FOR ENHANCING ANTI-TUMOR IMMUNITY” (THE BROAD INSTITUTE, INC., priority 2021, published 2024).
